In patent US20070015228A1:

Target: normal human IgG (Zymed) (human)
Test: ELISA, 8A3 coated on plate, anti-human IgG Fc-HRP detection

B1: anti-idiotypic antibody 8A3 (antibody, V domains shown)
VH: QVQLQQSGAELAKPGASVKMSCKASGYNFTTYWMHWVKQRPGQGLEWIGYINPSTDYTEYNQKFKYKATLTADKSSSTAYIQLSSLTSEDSAVYYCARWWDYDWYFDVWGAGTPLTVSS
VL: DIVMTQSQEFMSTSVGDRVSVTCKASQTVDTNVAWYQQKLGQSPKPLIYSASYRCSGVPDRFTGSGSRTDFTLTITNVQSEDLAEYFCQQYHSFPWTFGGGTKVEIKR
Q: B1 was tested. Which fold (binding to normal human IgG against humanized anti-CD20 IgG) did it give?
A: < 50000 fold
